The subject of data set [1] is persistent non-septic corneal epithelial defects. The experiment in a line: Open-label clinical trial of topical SP in canine patients with chronic non-septic corneal epithelial defects. The class given is in vivo, dog. To be noted: 500 μ/ml SP topical, 8 times daily. An excerpt: This was a non-controlled open-label clinical trial conducted on canine patients seen in a specialty referral service for chronic, non-septic corneal epithelial defects. Criteria for inclusion included:
1. Absence of an identifiable underlying cause of the epithelial defect (lid abnormalities, decreased tear production etc.) on complete ophthalmic examination.
2. Persistence of the defect for at least 3 weeks.
3. Unresponsive to traditional therapy (topical broad spectrum antibiotics,some cases had received topical hyper-osmotic therapy, and 5 dogs had not healed after placement of a therapeutic soft contact bandage lens).
After obtaining informed consent from the owners, the dogs were taken into the hospital, an Elizabethan collar was placed (to keep the dog from rubbing its eye) and two drops of 500 μ/ml SP were instilled into the affected eye. The dogs were closely observed for any irritant effect of the drops. The dogs were then treated with one drop 8 times daily for duration of the trial.

Data set [2] deals with corneal epithelium. The experiment in a line: Morphological examination of adherence of regenerated corneal epithelium. In kind it is in vivo, rabbit. To be noted: after healing of the cornea; masked specimens; systemic capsaicin, or topical enkephalinase in normal rabbits. An excerpt:
For both capsaicin-treated rabbits and those treated with topical enkephalinase, regenerated epithelial layers could be easily rubbed off as a sheet of cells after healing of the cornea. This was not found in the control rabbits. Specimens from the various treatment groups were masked and morphologically examined to determine the nature of epithelial adherence. […] Thus, it appears that SP and other neuropeptides contribute to the attachment of epithelial cells during wound healing. Such contribution may take the form of elaboration of extracellular matrices (e.g., fibronectin) as well as development of cellular attachment mechanism, which activity would be in addition to their mitogenic activity in promoting cellular proliferation.

The subject of data set [3] is corneal epithelium. The experiment in a line: Corneal re-epithelialization after debridement in rabbits given systemic capsaicin. In kind it is in vivo, rabbit. Here is the method:
In order to investigate the effect of SP treatment on corneal epithelial cell growth, capsaicin (50 mg/kg) was injected subcutaneously into young rabbits on five consecutive days in order to deplete, lower, or block the release of SP in their corneas. Lidocain was injected subcutaneously into the injection site 10 minutes prior to the capsaicin injection. Three weeks after the last injection, the rabbits were anesthetized (ketamine/rompun), topical anesthetic applied to the cornea and the corneal epithelium of both eyes debrided to the limbal margin of clear cornea. The corneas were stained 2× daily with fluorescein and photographed using a cobalt filter to monitor re-epithelialization. Resultant photographs were projected onto a digitizing board and the surface area of ulceration determined. […] Clinically, the capsaicin treated rabbits differed from the control rabbits only in their impaired ability to re-epithelialize the denuded stroma.

The subject of data set [4] is epithelial cells. The experiment in a line: SP analogs and fragment: stimulation of DNA synthesis / cell growth. In kind it is cell-based. Here is the method:
Several SP analogs were also tested for their ability to stimulate DNA synthesis. An SP analog where norleucine is substituted for methionine at the C-terminus was tested (Nle-SP). Norleucine is a structural analog of methionine where the sulfur is replaced with a CH2 group.

The test system of data set [5] is corneal epithelium. The experiment in a line: Corneal re-epithelialization after debridement in non-capsaicin rabbits treated with topical enkephalinase. The class given is in vivo, rabbit. The protocol:
To evaluate the effect of SP depletion using another model, the corneal epithelium was removed from non-capsaicin treated rabbits as described above. Enkephalinase (which breaks down SP) was administered 4× daily to one eye of each bilaterally wounded rabbit. The fellow eye received vehicle only 4× daily. […] FIG. 4 underestimates the time course of epithelial healing of both capsaicin treated rabbits and enkephalinase treated corneas for many of these corneas had not re-epithelialized at the termination of the experiments. In 12 rabbits, the enkephalinase treated eye always took longer to heal. In FIG. 5, typical plots for one rabbit (the other 11 rabbits gave essentially the same results) of wound area with time are presented. The solid line represents the enkephalinase-treated eye while the broken line represents the control without enkephalinase. In each case the enkephalinase treated eye and the vehicle treated eye appeared to heal at the same rate for the first 80 to 90 hours. […] The initial healing rate was probably due to migration of pre-existing cells onto the peripheral wound. After 80 to 90 hours synthesis of new cells is required in order to completely cover the wound. […]

The subject of data set [6] is epithelial cells. The experiment in a line: Effect of enkephalinase on the ability of SP and insulin to stimulate DNA synthesis. In kind it is cell-based. The protocol: Substance P (SP) was tested for its ability to stimulate cell growth in epithelial cells from both cornea and lens that were arrested in the G1 /Go phase of the cell cycle in serum free media. […] See, FIG. 1 for corneal and FIG. 2 for lens epithelial cells. To test whether this effect was due to SP, 1 μg/ml of enkephalinase (an enzyme that cleaves SP between amino acid residues 6-7, 7-8, and 9-10) was added.
In the previous experiment, the enkephalinase was added to the cells at the same time as the SP.

Where a SMILES comes first, the peptide text is derived from it. [ ]: non-standard residue; d: D form.

In the case of `CSCC[C@H](NC(=O)[C@H](CC(C)C)NC(=O)CNC(=O)[C@H](Cc1ccccc1)NC(=O)[C@H](Cc1ccccc1)NC(=O)[C@H](CCC(N)=O)NC(=O)[C@H](CCC(N)=O)NC(=O)[C@@H]1CCCN1C(=O)[C@H](CCCCN)NC(=O)[C@@H]1CCCN1C(=O)[C@@H](N)CCCN=C(N)N)C(N)=O` [SP, Substance P], the complications entry in data set [1] is given as “No complications were observed”.

Take `COc1cc(CNC(=O)CCCC/C=C/C(C)C)ccc1O` [capsaicin]: in data set [2], the “adherence of regenerated corneal epithelium” value is “poorly adhered”. The “time to re-epithelialize the denuded cornea” value in data set [3] (capsaicin 50 mg/kg subcutaneously on five consecutive days, wounding three weeks later, vs 160 hours in non-capsaicin rabbits (FIG. 4)) came out at 460 h. Also, the “clinical evidence of impaired lacrimation or other secondary phenomenon” value in data set [3] (capsaicin treated rabbits) was “No clinical evidence”.

For the molecule `CC(C)C[C@H](NC(=O)[C@H](CC(C)C)NC(=O)[C@@H](Cc1c[nH]c2ccccc12)NC(=O)[C@H](Cc1ccccc1)NC(=O)[C@@H](Cc1c[nH]c2ccccc12)NC(=O)[C@H](CCC(N)=O)NC(=O)[C@H](CCC(N)=O)NC(=O)[C@@H]1CCCN1C(=O)[C@H](CCCCN)NC(=O)[C@@H]1CCCN1C(=O)[C@H](N)CCCNC(=N)N)C(N)=O` [spantide] (H-[dR]PKPQQ[dW]F[dW]LL-NH2), in data set [4], the “promotion of cellular growth” value was “stimulate epithelial cell growth”.

For “fragment of substance P including only amino acids 5-11: fragment of substance P including only amino acids 5-11 (GlnPhePheGlyLeuMet)”, the “promotion of cellular growth” value in data set [4] was “active”.

B1: enkephalinase: an enzyme that cleaves SP between amino acid residues 6-7, 7-8, and 9-10 (protein, UniProt P08473 2-750, looked up)
Neprilysin: GKSESQMDITDINTPKPKKKQRWTPLEISLSVLVLLLTIIAVTMIALYATYDDGICKSSDCIKSAARLIQNMDATTEPCTDFFKYACGGWLKRNVIPETSSRYGNFDILRDELEVVLKDVLQEPKTEDIVAVQKAKALYRSCINESAIDSRGGEPLLKLLPDIYGWPVATENWEQKYGASWTAEKAIAQLNSKYGKKVLINLFVGTDDKNSVNHVIHIDQPRLGLPSRDYYECTGIYKEACTAYVDFMISVARLIRQEERLPIDENQLALEMNKVMELEKEIANATAKPEDRNDPMLLYNKMTLAQIQNNFSLEINGKPFSWLNFTNEIMSTVNISITNEEDVVVYAPEYLTKLKPILTKYSARDLQNLMSWRFIMDLVSSLSRTYKESRNAFRKALYGTTSETATWRRCANYVNGNMENAVGRLYVEAAFAGESKHVVEDLIAQIREVFIQTLDDLTWMDAETKKRAEEKALAIKERIGYPDDIVSNDNKLNNEYLELNYKEDEYFENIIQNLKFSQSKQLKKLREKVDKDEWISGAAVVNAFYSSGRNQIVFPAGILQPPFFSAQQSNSLNYGGIGMVIGHEITHGFDDNGRNFNKDGDLVDWWTQQSASNFKEQSQCMVYQYGNFSWDLAGGQHLNGINTLGENIADNGGLGQAYRAYQNYIKKNGEEKLLPGLDLNHKQLFFLNFAQVWCGTYRPEYAVNSIKTDVHSPGNFRIIGTLQNSAEFSEAFHCRKNSYMNPEKKCRVW
With B1, the “healing rate (wound area with time)” value in data set [5] (after the first 80 to 90 hours (FIG. 5)) is recorded as “slow dramatically”. Besides, in data set [5] (enkephalinase 4× daily to one eye, 12 rabbits (FIG. 4)), the “re-epithelialization compared to fellow eye treated with vehicle” value is reported as “markedly impair re-epithelialization”. For the same molecule, the “effect of enkephalinase on SP-stimulated DNA synthesis” value in data set [6] (1 μg/ml enkephalinase added at the same time as SP (FIG. 3)) is on record as “destroyed all activity of SP by itself”. The “effect of enkephalinase on insulin-stimulated DNA synthesis” value in data set [6] (1 μg/ml enkephalinase, insulin alone (FIG. 3)) was “did not affect the activity of insulin alone”. The “effect of enkephalinase pretreatment on the SP effect” value in data set [6] (cells pretreated 1 to 3 hours, enkephalinase then removed, especially in the presence of insulin) is given as “enhancement of the SP effect”. For the same molecule, the “harmful effects on epithelial cells” value in data set [6] (enkephalinase by itself) is “no harmful effects”. For the same molecule, the “adherence of regenerated corneal epithelium” value in data set [2] is on record as “poorly adhered”.
